Assay results: patent US10100317B2, “Compositions of matter that reduce pain, shock, and inflammation by blocking linoleic acid metabolites and uses thereof” (Board of Regents of the University of Texas System, priority 2012, dated 2018)
“Also recorded” adds a separate entry of the source.

Tests used:
TRPV1 in the spinal cord = details: completely reversible by a TRPV1 antagonist; cited from earlier work
[1] = test system: LA-evoked nofifensive behaviors; assay: LA-evoked nocifensive behaviors after capsazepine pretreatment (FIG. 3B); type: in vivo; details: pretreatment before linoleic acid
normal rats = assay: Spontaneous nocifensive behaviors after linoleic acid injection in normal rats (FIG. 3A); type: in vivo, rat
[2] = test system: TRPV1 knock-out (KO) mice; assay: LA-triggered nocifensive behaviors in TRPV1 knock-out versus wild type mice (FIG. 3C); type: in vivo; details: TRPV1 KO mice compared to wild type mice
[3] = test system: cultured capsaicin-sensitive neurons; assay: Patch clamp electrophysiology of cultured capsaicin-sensitive neurons; type: cell-based
[4] = ELASA (ELISA-like) plate screening of aptamers against 9-HODE; type: binding; details: for Affinity ranking in ELASA plate screening: 9-HODE target, three trials, done in triplicate; for Trial 1 Abs 405 nm: ELASA trial 1; for Trial 3 Abs 405 nm: ELASA trial 3
Method: (§1) To evaluate, screen, and rank aptamers based on affinity against their cognate HODE isomers, two different approaches are used. The first involved the use of Corning Costar Universal Bind™ microplates (No. 2503) for ultraviolet (UV) immobilization of 200 ng/well of unlabeled HODES to the plate's surface (Bruno et al., 2008 and 2009) using 0.2 Joules/cm^2 in a UV crosslinker oven for 15 minutes. The second involved streptavidin (SAv)-coated microwell strips (Nunc, Inc. Catalogue #436020) in which 400 ng of the biotinylated-13-HODE are immobilized for 30 minutes at RT with gentle mixing in 200 μl of PBS per well.
(§2) Plates or wells are decanted and washed three times in 250 μl of 1×BB. Each of the different 5′-biotinylated aptamers raised against the target is dissolved in 1×BB at 1.00 nmole per 100 microliters and applied to their corresponding plate wells for 1 hour at RT with gentle mixing on an orbital shaker. The plate is decanted and washed three times in 250 μl of 1×BB for at least 5 minutes per wash with gentle mixing. One hundred μl of a 1:2,000 dilution of SAv-peroxidase from a 5 mg/ml stock solution in 1×BB is added per well for 30 minutes at RT with gentle mixing. The plate is decanted and washed three times with 250 μl of 1×BB per well as before.
(§3) One hundred μl of ABTS (2,2′-azino-bis(3-ethylbenzthiazoline-6-sulphonic acid) substrate with stabilized hydrogen peroxide (Kirkegaard Perry Laboratories, Inc., Gaithersburg, Md.) is added per well for 10 minute at RT. Various deletion control wells without biotinylated aptamers or SAv-peroxidase are set up and evaluated to establish background levels as well. Finally absorbance is quantified using a microplate reader with 405 nm optical filter.
(§4) These aptamers were: H9-3/19F and B13-9R for the 9-HODE and biotinylated 13-HODE targets respectively and they proceeded into animal testing.

[5] = test system: rat hindpaws inflamed with complete Freund's adjuvant (CFA); assay: Pain responses in rat hindpaws inflamed with complete Freund's adjuvant (CFA); type: in vivo; details: local (hindpaw) injection, FIG. 2
[6] = SPR analysis (Biacore X100) with immobilized 13(S)-HODE-Biotin; type: binding; details: CM5 chip, 1×HBS-EP+ buffer, aptamer 20-80 μM, contact 90 s, dissociation 600 s; read-out: dissociation constant, KD
Method: SPR Analysis of H9-3/19F Aptamer and B13-9R Aptamer with 13(S)-HODE-Biotin
(§5) 13(S)-HODE-Biotin was immobilized on a CM5 sensor chip utilizing biotin-streptavidin chemistry. Various concentrations of H9-3/19F aptamer (SEQ ID. NO. 84) were flowed through the Biacore X100 with 1×HBS-EP+ running buffer at a flow rate of 30 μl/min and allowed a contact time with the surface-bound ligand of 90 seconds, followed by a dissociation time set at 600 seconds. The following concentrations of aptamer were used: 20 μM, 40 μM, 60 μM and 80 μM.
as §5, with “B13-9R” for “H9-3/19F”, “67)” for “84)”

[7] = ELASA (ELISA-like) plate screening of aptamers against 13-HODE / biotinylated 13-HODE; type: binding; details: for Trial 1 Abs 405 nm: ELASA trial 1; for Trial 1 Abs 405 nm / Trial 2 Abs 405 nm / Trial 3 Abs 405 nm: 13-HODE / biotinylated 13-HODE aptamers, absorbance 10-15 minutes after final addition of ABTS substrate; for Trial 2 Abs 405 nm: ELASA trial 2; for Trial 3 Abs 405 nm: ELASA trial 3; for Affinity ranking in ELASA plate screening: biotinylated 13-HODE target, three trials, done in triplicate
Method: as §1, §2, §3, §4

[8] = 9-HODE aptamers, absorbance 10-15 minutes after final addition of ABTS substrate

## 9-hydroxyoctadecadienoic acid [Aptamer 9-HODE]
TRPV1 in the spinal cord
  tactile allodynia: results in tactile allodynia

## COc1cc(CNC(=O)CCCC/C=C/C(C)C)ccc1O [capsaicin]
TRPV1 in the spinal cord
  tactile allodynia: results in tactile allodynia

## Oc1cc2c(cc1O)CN(C(=S)NCCc1ccc(Cl)cc1)CCC2 [capsasepine]
[1]
  LA-evoked nocifensive behaviors: significantly reduced

## CCCCC/C=C\C/C=C\CCCCCCCC(=O)O [linoleic acid, cis, cis-9,12-octadecadienoic acid]
Normal rats
  spontaneous nocifensive behaviors: does not produce a significant increase
[2]
  LA-triggered nocifensive behaviors: significantly reduced

B1: 5′-ATACGGGAGCCAACACCACCGAATGTGCTGCAGGACTAATCTGGATGGCCATGCAGAGCAGGTGTGACGGAT-3′ (nucleic acid)
DNA: ATACGGGAGCCAACACCACCGAATGTGCTGCAGGACTAATCTGGATGGCCATGCAGAGCAGGTGTGACGGAT
modifications: DNA, backbone not given here
notes: DNA aptamer for the OLAM 9-HODE
[3]; capsaicin itself / TRPV1 directly
  block of capsaicin response (selectivity): does not block capsaicin itself
[3]; pre-treatment with aptamer, 9-HODE response, preliminary data, FIG. 1
  activation of cultured capsaicin-sensitive neurons: blocks activation
[4]
  Affinity ranking in ELASA plate screening: highest affinity; also recorded: top two to three strongest absorbance signals
[4]; listed as SEQ ID NO. 84
  Affinity ranking in ELASA plate screening: highest binding affinity
[4]; [8]
  Trial 1 Abs 405 nm: 2.081
  Trial 3 Abs 405 nm: 1.640
[4]; ELASA trial 2, 9-HODE aptamers, absorbance 10-15 minutes after final addition of ABTS substrate
  Trial 2 Abs 405 nm: 1.648
[5]
  pain responses to mechanical stimuli: significant reduction in pain responses
  pain responses to thermal stimuli: significant reduction in pain responses
[6]
  Kd: 0.129 nM

B2: 5′-ATCCGTCACACCTGCTCTGGGGGGGGAAGCTCGTGGTATAAGGGGCGTTGAGGTGGTGTTGGCTCCCGTAT-3′ (nucleic acid)
DNA: ATCCGTCACACCTGCTCTGGGGGGGGAAGCTCGTGGTATAAGGGGCGTTGAGGTGGTGTTGGCTCCCGTAT
modifications: DNA, backbone not given here
notes: DNA aptamer for the OLAM 13-HODE
[7]
  Trial 1 Abs 405 nm: 1.549
  Trial 2 Abs 405 nm: 1.885
  Trial 3 Abs 405 nm: 1.964
  Affinity ranking in ELASA plate screening: highest affinity; also recorded: top two to three strongest absorbance signals
[7]; listed as SEQ ID NO. 67
  Affinity ranking in ELASA plate screening: highest binding affinity
[6]
  Kd: 2.56 nM

B3: B13-8F: DNA aptamer clone, biotinylated 13-HODE target (nucleic acid)
DNA: ATACGGGAGCCAACACCAGCGAAGCCAAAACTGGTCGGGCCGACGGGATTCGTTAGAGCAGGTGTGACGGAT
modifications: DNA, backbone not given here
notes: DNA aptamer clone, biotinylated 13-HODE target
[7]
  Trial 1 Abs 405 nm: 1.490

B4: B13-10bR: DNA aptamer clone, biotinylated 13-HODE target (nucleic acid)
DNA: ATCCGTCACACCTGCTCTGCGGACAGCGGTTGCGCATATATCGTGGCAGTGGGCTGGTGTTGGCTCCCGTAT
modifications: DNA, backbone not given here
notes: as for B3
[7]
  Trial 2 Abs 405 nm: 1.214

B5: B13-12R: DNA aptamer clone, biotinylated 13-HODE target (nucleic acid)
DNA: ATCCGTCACACCTGCTCTGCCATTGAATCTCATATGGTGCTCGAGTAGCTGGTGTGGTGTTGGCTCCCGTAT
modifications: DNA, backbone not given here
notes: as for B3
[7]
  Trial 3 Abs 405 nm: 1.310

B6: H13-12F: DNA aptamer clone, 13-HODE target (nucleic acid)
DNA: ATACGGGAGCCAACACCATGTTACATCAACTGCATGAAGACGAGGAATGTGATGAGAGCAGGTGTGACGGAT
modifications: DNA, backbone not given here
notes: DNA aptamer clone, 13-HODE target
[7]
  Trial 1 Abs 405 nm: 1.442

B7: H13-1/2-4/6-8/14-18/20F: DNA aptamer clone, 13-HODE target (nucleic acid)
DNA: ATACGGGAGCCAACACCACAAAGTTTAGCGTTATGCAACTCCCCCTTATACTCGAGAGCAGGTGTGACGGAT
modifications: DNA, backbone not given here
notes: as for B6
[7]
  Trial 2 Abs 405 nm: 1.199
  Trial 3 Abs 405 nm: 1.387

B8: H9-2/4-6/8a/9b/14/20F: DNA aptamer clone, 9-HODE target (nucleic acid)
DNA: ATACGGGAGCCAACACCACAAAGTTTAGCGTTATGCAACTCCCCCTTATACTCGAGAGCAGGTGTGACGGAT
modifications: DNA, backbone not given here
notes: DNA aptamer clone, 9-HODE target
[4]; [8]
  Trial 3 Abs 405 nm: 1.249

B9: H9-3/19R: DNA aptamer clone, 9-HODE target (nucleic acid)
DNA: ATCCGTCACACCTGCTCTGCATGGCCATCCAGATTAGTCCTGCAGCACATTCGGTGGTGTTGGCTCCCGTAT
modifications: DNA, backbone not given here
notes: as for B8
[4]; [8]
  Trial 1 Abs 405 nm: 1.571

B10: B13-1a/4/6/15/17/19/20R: DNA aptamer clone, biotinylated 13-HODE target (nucleic acid)
DNA: ATCCGTCACACCTGCTCTCGAGTATAAGGGGGAGTTGCATAACGCTAAACTTTGTGGTGTTGGCTCCCGTAT
modifications: DNA, backbone not given here
notes: as for B3
[7]
  Trial 2 Abs 405 nm: 1.595
